{
  "source": "paper PMC6473736",
  "origin": "cited, not measured here",
  "target": "Nterm (UniProt position 2, ----MVHLTPE)",
  "settings": "not stated (haem ligation state not given)",
  "data": [
    {"substance": "Human haemoglobin (adult Hb, alpha2beta2) (Homo sapiens)", "values": [
      {"measurement": "pKa", "result": "approximately 7.8 (α-chain) and 6.8 (β-chain)"}
    ]}
  ]
}
